Results reported in patent US9587002B2, “Sequence of nucleotides and peptides GSE 24.2 of dyskerin, which can induce telomerase activity, method for obtaining same, therapeutic compositions and applications thereof” (CONSEJO SUPERIOR DE INVESTIGACIONES CIENTIFICAS, priority 2005, dated 2017).

Legend:
hTERT [1] = test: RT-PCR of hTERT in VA13 cells; assay type: cell-based; details: transient transfection
Description: (§1) FIG. 10.—Telomerase activity and expression levels of hTERT and hTR in the cells of patients with dyskeratosis congenita and in VA13 cells transiently transfected with the 24.2 plasmid or the pLNCX empty vector. A) Telomerase activity measured by means of the TRAP assay in the cells of patients with dyskeratosis congenita (DC-1, DC-2 and DC-3) and in the carrier parent (DC-C) following electroporation of 45 μg of the pLNCX empty plasmid (−) or the pLNCX 24.2 vector (+) by 15 million cells. B) RT-PCR of the RNA from cells of one of the patients with dyskeratosis congenita, DC3 transfected with the empty vector and DC3 transfected with the 24.2 plasmid, using oligos specific for hTERT and hTR. As a starting RNA control, oligos for the amplification of GAPDH were used. C) Telomerase activity in VA13 cells. The cells were transiently transfected with 16 μg of the control pLNCX empty vector, expressing DKC or the GSE 24.2 peptide per million cells. 24 hours later, the telomerase activity was analysed as described above, using dilutions of the protein extracts from each transfection. D) The expression levels of hTERT and hTR in VA13 cells transfected with 16 μg of the different construct per million cells. RNA levels were detected as described above. GAPDH was used as a control. […] After 24 h of transfection, the luciferase activity was analyzed as described above. […]

c-MYC promoter = test: c-MYC-luc reporter (px3.2) luciferase assay in 293T cells; assay type: cell-based, human
Description: FIG. 12.—The promoter activity of c-MYC is induced by the GSE 24.2 peptide. A) Schematic representation of the c-MYC promoter, indicating the different constructs used in the experiments. B) 293T cells were co-transfected with the specified plasmids (10 μg/DNA per million cells) and with the px3.2 c-MYC-luc reporter (1 μg per million cells). C) The specified cell lines were transfected with the px3.2 c-MYC-luc reporter (1 μg per million cells). D) The specified cell lines were transfected with the different constructs of the c-MYC-luc reporter (1 μg per million cells). After 24 hours of transfection, the luciferase activity was analysed as specified above. CMV-Renilla (0.1 μg/ml per million cells) was used as a control for the transfection efficiency. The data represent the mean of two experiments performed in quadruplicate.
FIG. 13.—The activity of the c-MYC promoter induced by the GSE 24.2 peptide is dependent on the NHE III element. A) Schematic representation of the mutations generated in the NHE III element, px3.2 (SEQ ID NO: 21), px3.2 G12A (SEQ ID NO: 22), px3.2 G17A (SEQ ID NO: 23), and px3.2 G26T/G27T (SEQ ID NO: 24). B) The 293T cells were co-transfected with different constructs (10 μg/DNA per million cells) and with the different mutants of the px3.2 reporter plasmid (1 μg per million cells). C) The cell lines specified in the figure were transfected with the different mutants of the px3.2 reporter (1 μg per million cells). After 24 h of transfection, the luciferase activity was analysed as specified above. CMV-Renilla (0.1 μg/ml per million cells) was used as a control for the transfection efficiency. The data represent the mean of two experiments performed in quadruplicate.
The transcription of the c-myc gene is controlled by two different promoters and it seems to be repressed by a domain hypersensitive to DNase located between the P0 and P1 promoters (NHEIII). Thus, four different constructs were used that contained 3.2 kb of the transcription initiation point of c-myc bound to the luciferase gene (FIG. 12a).
This transcription factor, c-myc, should therefore activate the transcription of hTERT. Thus, three mutants deleted in the c-myc promoter were used to define the necessary region for the GSE 24.2 peptide to perform its inducing activity.
Since the NHEIII region has been described as an inhibitor of the transcription of c-myc, several mutants of the NHEIII region were constructed by Guanine modification of the purine-rich region. The 27 Guanines present in the NHEIII region are involved in maintaining the secondary structure of the G-quadruplexes of the purine-rich region (Pu27). The following were mutated: G12A, located on the second guanine of the second quartet; G17A, on the second triplet of Guanines; and, finally, two consecutive Guanines (G26A/G27A) at the end of the purine-rich region (FIG. 13a). These promoter construct were transfected in cells that express, either the empty vector, or the vectors containing the DKC protein or the GSE 24.2 peptide.
Directed mutagenesis. The specific mutations of guanine in the NHEIII region of the c-myc gene promoter, px3.2, were performed using the Quickchange X-L directed mutagenesis kit (Strategene) in accordance with the manufacturer's instructions.

hTERT [2] = test: RT-PCR of hTERT in cells of patients with dyskeratosis congenita; assay type: cell-based, human; details: RT-PCR 24 hours after transfection
Description: as §1

hTR = test: RT-PCR of hTR in cells of patients with dyskeratosis congenita; assay type: cell-based, human; details: RT-PCR 24 hours after transfection
Description: as §1

B1: GSE 24.2: 165-pb cDNA fragment (nucleotides 268 to 433) of human dyskerin, SEQ ID NO1, encoding peptide SEQ ID NO2, expressed from pLNCX plasmid (nucleic acid, listed as Homo sapiens)
DNA: GGTTTCATTAATCTTGACAAGCCCTCTAACCCCTCTTCCCATGAGGTGGTAGCCTGGATTCGACGGATACTTCGGGTGGAGAAGACAGGGCACAGTGGTACTCTGGATCCCAAGGTGACTGGTTGTTTAATCGTGTGCATAGAACGAGCCACTCGCTTGGTGAAG
modifications: expressed from pLNCX plasmid; CDS (1)..(165) Sequence GSE 24.2
**Q.** B1 was tested. Which “expression of hTERT RNA in VA13 cells” value (hTERT [1]) did it give?
**A.** Its value is “capable of recovering”.

**Q.** What about the “c-myc promoter (px3.2myc) activity, transient co-transfection” value (c-MYC promoter; 293T cells, GSE 24.2 plasmid vs pLNCX jointly with px3.2myc reporter) of the same molecule?
**A.** The value was “A similar result was obtained”.

**Q.** And the “transcription from deletion mutants of the c-myc promoter” value (c-MYC promoter; GSE 24.2 cells vs control cells, three deleted mutants)?
**A.** Its value is “only those contained in the distal region of promoters P1 and P0, which include the NHEIII domain, were capable of maintaining the transcription”.

**Q.** And the “activation of WT px3.2 myc promoter” value (c-MYC promoter; cells expressing empty vector, DKC or GSE 24.2)?
**A.** The value was “only the WT px3,2 myc promoter was capable of being activated”.

**Q.** What about the “activation of Pu27 (NHEIII) mutant c-myc promoters” value (c-MYC promoter; mutants G12A, G17A, G26A/G27A) of the same molecule?
**A.** Its value is “at very low levels”.

**Q.** What about the “c-myc promoter (px3.2myc) activity, GSE 24.2 cells vs control cells” value (c-MYC promoter; stable cell lines transfected with px3.2myc) of the same molecule?
**A.** The value was “three-fold increase in activity”.

**Q.** What about the “hTERT expression levels in dyskeratosis congenita cells” value (hTERT [2]) of the same molecule?
**A.** Its value is “an increase in the expression levels was observed”.

**Q.** What about the “hTR expression levels in dyskeratosis congenita cells” value (hTR) of the same molecule?
**A.** The value was “an increase in the expression levels was observed”.
